Experimental data taken from patent publication US20170355774A1.
Each block holds one binder with its values, some of them ahead of it.

Assays:
[1] = molecular target: hGITR.hFc (human); assay: SPR 37C, mAb capture
[2] = molecular target: hGITR.mmh (human); assay: SPR 37C, mAb capture
[3] = molecular target: mfGITR.mmh (Macaca fasicularis); assay: SPR 37C, mAb capture
[4] = molecular target: human GITR (amino acids M1-V241, NCBI Accession #NP_004186.1) expressed on cells (human) (UniProt Q9Y5U5); assay: cell-based or functional assay
Chain of human GITR (amino acids M1-V241, NCBI Accession #NP_004186.1) expressed on cells (human) (Q9Y5U5 26-241): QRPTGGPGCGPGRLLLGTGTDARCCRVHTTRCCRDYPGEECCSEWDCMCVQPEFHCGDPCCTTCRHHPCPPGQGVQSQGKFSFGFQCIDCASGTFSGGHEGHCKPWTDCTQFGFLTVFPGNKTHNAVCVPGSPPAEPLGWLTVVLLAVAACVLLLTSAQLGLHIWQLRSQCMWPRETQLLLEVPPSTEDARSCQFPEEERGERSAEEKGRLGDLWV

Chain of mfGITR.mmh (Macaca fasicularis) (chain, as listed by the source limits assumed): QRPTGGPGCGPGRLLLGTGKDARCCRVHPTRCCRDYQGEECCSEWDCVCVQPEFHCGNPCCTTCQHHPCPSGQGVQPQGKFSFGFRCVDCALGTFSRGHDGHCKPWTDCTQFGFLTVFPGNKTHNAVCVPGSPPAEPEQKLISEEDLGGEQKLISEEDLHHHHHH
Chain of hGITR.hFc (human) (chain, as listed by the source limits assumed): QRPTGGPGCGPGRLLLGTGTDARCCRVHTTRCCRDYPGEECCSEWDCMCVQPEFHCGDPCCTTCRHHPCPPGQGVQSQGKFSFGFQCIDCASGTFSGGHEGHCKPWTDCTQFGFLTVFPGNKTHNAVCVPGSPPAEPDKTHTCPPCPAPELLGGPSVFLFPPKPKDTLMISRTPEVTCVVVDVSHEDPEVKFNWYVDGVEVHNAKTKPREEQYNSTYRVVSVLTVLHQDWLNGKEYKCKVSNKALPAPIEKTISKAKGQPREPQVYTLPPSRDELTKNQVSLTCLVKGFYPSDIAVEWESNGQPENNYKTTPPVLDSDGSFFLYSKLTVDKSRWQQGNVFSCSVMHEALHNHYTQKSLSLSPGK
Chain of hGITR.mmh (human) (chain, as listed by the source limits assumed): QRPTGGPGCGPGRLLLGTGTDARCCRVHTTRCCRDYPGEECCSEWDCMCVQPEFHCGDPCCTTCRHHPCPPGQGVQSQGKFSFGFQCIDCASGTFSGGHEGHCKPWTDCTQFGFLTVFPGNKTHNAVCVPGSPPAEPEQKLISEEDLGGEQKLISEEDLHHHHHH

Kd [1]: 20.4 nM
koff [1]: 0.0078 s⁻¹
kon [1]: 382000 M⁻¹ s⁻¹
t½ [1]: 90 s
Kd [2]: 122 nM
koff [2]: 0.0263 s⁻¹
kon [2]: 216000 M⁻¹ s⁻¹
t½ [2]: 24 s
Kd [3]: 213 nM
koff [3]: 0.0464 s⁻¹
kon [3]: 218000 M⁻¹ s⁻¹
t½ [3]: 12 s
% Activation, NF-kB-Luc, non-anchored [4]: 25%
% Blocking, NF-kB-Luc, FcgR anchored [4]: 60%
% Blocking, NF-kB-Luc, non-anchored [4]: 54%
EC50, T-cell proliferation, FcgR anchored, donor 1 [4]: 37.2 nM
EC50, T-cell proliferation, FcgR anchored, donor 3 [4]: 42.9 nM
EC50, T-cell proliferation, FcgR anchored, donor 4 [4]: 3.5 nM
EC50, T-cell proliferation, FcgR anchored, donor 5 [4]: 52.7 nM
EC50, T-cell proliferation, FcgR anchored, mean [4]: 34.1 nM
EC50, hGITR activation, NF-kB-Luc, FcgR anchored [4]: 0.1 nM
EC50, hGITR activation, NF-kB-Luc, non-anchored [4]: 1.02 nM
Fold Activation over basal signal, NF-kB-Luc, FcgR anchored [4]: 6 fold
IC50, blocking of hGITRL stimulation, NF-kB-Luc, FcgR anchored [4]: 0.2 nM
IC50, blocking of hGITRL stimulation, NF-kB-Luc, non-anchored [4]: 0.1 nM
fold activation, T-cell proliferation, 22 nM, non-anchored, donor 1 [4]: 0.7 fold
fold activation, T-cell proliferation, 22 nM, non-anchored, donor 2 [4]: 0.8 fold
fold activation, T-cell proliferation, 22 nM, non-anchored, donor 3 [4]: 1 fold
fold activation, T-cell proliferation, 22 nM, non-anchored, donor 4 [4]: 1 fold
fold activation, T-cell proliferation, 22 nM, non-anchored, mean [4]: 0.9 fold
fold activation, T-cell proliferation, 33 nM, FcgR anchored, donor 1 [4]: 2.8 fold
fold activation, T-cell proliferation, 33 nM, FcgR anchored, donor 2 [4]: 2.8 fold
fold activation, T-cell proliferation, 33 nM, FcgR anchored, donor 3 [4]: 1.4 fold
fold activation, T-cell proliferation, 33 nM, FcgR anchored, donor 4 [4]: 1.1 fold
fold activation, T-cell proliferation, 33 nM, FcgR anchored, donor 5 [4]: 1.7 fold
fold activation, T-cell proliferation, 33 nM, FcgR anchored, mean [4]: 2 fold
fold activation, T-cell proliferation, plate-bound Ab 10.6 nM, donor 1 [4]: 6 fold
fold activation, T-cell proliferation, plate-bound Ab 10.6 nM, donor 2 [4]: 23 fold
fold activation, T-cell proliferation, plate-bound Ab 10.6 nM, donor 3 [4]: 23 fold
fold activation, T-cell proliferation, plate-bound Ab 10.6 nM, donor 4 [4]: 40 fold
fold activation, T-cell proliferation, plate-bound Ab 10.6 nM, donor 5 [4]: 23 fold
fold activation, T-cell proliferation, plate-bound Ab 10.6 nM, donor 6 [4]: 66 fold
fold activation, T-cell proliferation, plate-bound Ab 10.6 nM, donor 7 [4]: 25 fold
fold activation, T-cell proliferation, plate-bound Ab 10.6 nM, donor 8 [4]: 11 fold
fold activation, T-cell proliferation, plate-bound Ab 10.6 nM, mean [4]: 27 fold
B1: Anti-GITR Control Ab I-mIgG1 (antibody, from another filing, V domains shown)
VH: QVTLKESGPGILKPSQTLSLTCSFSGFSLSTSGMGVGWIRQPSGKGLEWLAHIWWDDDKYYNPSLKSQLTISKDTSRNQVFLKITSVDTADAATYYCARTRRYFPFAYWGQGTLVTVSS
VL: DIVMTQSQKFMSTSVGDRVSVTCKASQNVGTNVAWYQQKPGQSPKALIYSASYRYSGVPDRFTGSGSGTDFTLTINNVHSEDLAEYFCQQYNTDPLTFGAGTKLEIK

% Blocking, NF-kB-Luc, FcgR anchored [4]: 74%
EC50, hGITR activation, NF-kB-Luc, FcgR anchored [4]: 0.2 nM
Fold Activation over basal signal, NF-kB-Luc, FcgR anchored [4]: 5 fold
IC50, blocking of hGITRL stimulation, NF-kB-Luc, FcgR anchored [4]: 0.01 nM
fold activation, T-cell proliferation, 33 nM, FcgR anchored, donor 1 [4]: 1.1 fold
fold activation, T-cell proliferation, 33 nM, FcgR anchored, donor 2 [4]: 0.1 fold
fold activation, T-cell proliferation, 33 nM, FcgR anchored, donor 3 [4]: 1 fold
fold activation, T-cell proliferation, 33 nM, FcgR anchored, donor 4 [4]: 1 fold
fold activation, T-cell proliferation, 33 nM, FcgR anchored, donor 5 [4]: 1.2 fold
fold activation, T-cell proliferation, 33 nM, FcgR anchored, mean [4]: 1.3 fold
B2: Anti-GITR Control Ab I-mIgG2a (antibody, from another filing, V domains shown)
VH: QVTLKESGPGILKPSQTLSLTCSFSGFSLSTSGMGVGWIRQPSGKGLEWLAHIWWDDDKYYNPSLKSQLTISKDTSRNQVFLKITSVDTADAATYYCARTRRYFPFAYWGQGTLVTVSS
VL: DIVMTQSQKFMSTSVGDRVSVTCKASQNVGTNVAWYQQKPGQSPKALIYSASYRYSGVPDRFTGSGSGTDFTLTINNVHSEDLAEYFCQQYNTDPLTFGAGTKLEIK
